Residue numbers refer to the chain shown, from its start. Numbers in names are those of the source.
B1: GST-mGluR5-Cprox with EKST exchanged (domain or fragment)
chain: PERNVRSAFTTSTVVRMHVGDGKSSSAASRSSSLVNLWKRRGSSGETLSSNGKSVTWAQNRQAPRGQHLWQRLSVHINKKENPNQTAVIKPFPKSTENRGPGAAAGGGSGPGVAGAG
B2: GST-mGluR1-Cprox with mGluR5 888-EKSTRGQHL-896 in place of 901-…-909 (domain or fragment)
chain: PERNVRSAFTTSDVVRMHVGDGKLPCRSNTFLNIFRRKKPGAGNANSNGKSVSWSEPGGEKSTRGQHLWQRLSVHVKTNETACNQTAVIKPLTKSYQGSGKSLTFSDASTKTLYNVEE
B3: GST-mGluR1 V909L (domain or fragment)
chain: B2 chain with E60R, K61Q, S62A, T63P, R64K

biological target: recombinant CaM (calmodulin) (UniProt P0DP23 1-149); assay: pull-down

Binding result, binds:
B1
B2
B3
